# Data published in publication PMC11406491, “A Plasmonic Nanoledge Array Sensor for Selective Detection of Cardiovascular Disease Biomarkers in Human Whole Blood”.
# T1: myoglobin (UniProt P02144 2-154)
# T1 sequence: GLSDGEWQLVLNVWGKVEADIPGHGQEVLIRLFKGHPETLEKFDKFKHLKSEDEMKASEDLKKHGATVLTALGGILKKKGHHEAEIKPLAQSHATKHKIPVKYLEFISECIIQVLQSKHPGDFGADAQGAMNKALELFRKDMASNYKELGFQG
# Columns and labels:
# [1] = target: T1, myoglobin; test: SPR (transmitted, EOT peak shift); up to 125 ng/mL; minimal shift, described as poor binding; human serum (Methods) or PBS (Fig S8); Aptamer immobilized on gold nanoledge chip (cystamine/glutaraldehyde, PEG and glycine blocked); PBS, human serum or whole blood; 20 min incubation; room temperature (stated for stability test); pH and salt not given; details: protein: commercial
# [2] = target: cardiac troponin I (cTnI) (human, UniProt P19429 2-210); test: SPR (transmitted, EOT peak shift); PBS; LOD 0.079 ng/mL; Aptamer immobilized on gold nanoledge chip (cystamine/glutaraldehyde, PEG and glycine blocked); PBS, human serum or whole blood; 20 min incubation; room temperature (stated for stability test); pH and salt not given; details: protein: commercial
# cardiac troponin I (cTnI), sequence (P19429 2-210): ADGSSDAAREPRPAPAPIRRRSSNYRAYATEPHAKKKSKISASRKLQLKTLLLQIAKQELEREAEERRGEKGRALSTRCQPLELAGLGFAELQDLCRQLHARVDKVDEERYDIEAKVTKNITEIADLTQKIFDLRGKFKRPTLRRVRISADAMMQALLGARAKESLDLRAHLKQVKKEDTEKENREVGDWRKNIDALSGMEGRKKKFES
binder,measurement,setting,value
"CGTGCAGTACGCCAACCTTTCTCATGCGCTGCCCCTCTTA (ssDNA, 5' amino modifier C6 (5AmMC6)) [cTnI-specific aptamer]",binding result,[1],no binding
same,binding result,[2],binds
